Measurements taken from patent US20210155689A1 (SHANGHAI PHARMAEXPLORER, published 2021).
Primed or numbered codes have the meaning given here. No end group written: not given here. Biotin′ = biotin label at the C-terminus

What was measured:
[1] = molecular target: human LAG-3 on cells (HEK293-hLAG-3 stable cell line) (human) (UniProt P18627); assay: cell-based or functional assay
[2] = molecular target: human LAG-3 on cells (HEK293-hLAG-3 stable cell line) (human) (UniProt P18627); assay: FACS, HEK293-hLAG-3, antibody 0 nM
[3] = molecular target: human LAG-3 on cells (HEK293-hLAG-3 stable cell line) (human) (UniProt P18627); assay: FACS, HEK293-hLAG-3, antibody 40 nM
[4] = molecular target: human LAG-3 on cells (HEK293-hLAG-3 stable cell line) (human) (UniProt P18627); assay: FACS, HEK293-hLAG-3, antibody 0.32 nM
[5] = molecular target: human LAG-3 on cells (HEK293-hLAG-3 stable cell line) (human) (UniProt P18627); assay: FACS, HEK293-hLAG-3, antibody 0.320 nM
[6] = molecular target: human LAG-3 on cells (HEK293-hLAG-3 stable cell line) (human) (UniProt P18627); assay: FACS, HEK293-hLAG-3, antibody 1.600 nM
[7] = molecular target: monkey LAG-3 on cells (HEK293-cLAG-3 stable cell line) (monkey); assay: FACS, HEK293-cLAG-3, antibody 1.600 nM
monkey LAG-3 on cells (HEK293-cLAG-3 stable cell line) (monkey), sequence (P18627 other isoform, or with tags, fused parts or gaps limits assumed): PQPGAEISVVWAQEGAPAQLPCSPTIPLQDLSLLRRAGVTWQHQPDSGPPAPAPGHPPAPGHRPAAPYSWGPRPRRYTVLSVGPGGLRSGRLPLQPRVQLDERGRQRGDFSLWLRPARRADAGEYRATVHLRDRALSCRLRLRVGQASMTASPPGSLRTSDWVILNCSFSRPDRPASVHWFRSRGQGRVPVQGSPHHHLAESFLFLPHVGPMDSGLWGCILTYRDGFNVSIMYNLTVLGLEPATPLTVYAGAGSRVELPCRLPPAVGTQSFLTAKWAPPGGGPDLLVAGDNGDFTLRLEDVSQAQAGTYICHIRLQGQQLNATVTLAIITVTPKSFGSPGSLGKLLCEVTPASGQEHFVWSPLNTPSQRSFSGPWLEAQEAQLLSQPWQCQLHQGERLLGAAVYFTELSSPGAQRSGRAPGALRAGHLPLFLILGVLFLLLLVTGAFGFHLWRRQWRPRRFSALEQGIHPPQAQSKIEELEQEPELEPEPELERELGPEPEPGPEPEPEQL

[8] = molecular target: LAG-3-hFc protein (human LAG-3 extracellular region with hFc tag) (human) (UniProt P18627); assay: ELISA, inhibition of LSECtin-His binding to coated LAG-3-hFc, antibody 0.320 nM, replicate 1
[9] = molecular target: LAG-3-hFc protein (human LAG-3 extracellular region with hFc tag) (human) (UniProt P18627); assay: ELISA, inhibition of LSECtin-His binding to coated LAG-3-hFc, antibody 0.320 nM, replicate 2
[10] = molecular target: T1, human LAG-3 on cells (HEK293-hLAG-3 stable cell line) (human, UniProt P18627 23-525); assay: FACS, HEK293-hLAG-3, antibody 40 nM
T1 sequence: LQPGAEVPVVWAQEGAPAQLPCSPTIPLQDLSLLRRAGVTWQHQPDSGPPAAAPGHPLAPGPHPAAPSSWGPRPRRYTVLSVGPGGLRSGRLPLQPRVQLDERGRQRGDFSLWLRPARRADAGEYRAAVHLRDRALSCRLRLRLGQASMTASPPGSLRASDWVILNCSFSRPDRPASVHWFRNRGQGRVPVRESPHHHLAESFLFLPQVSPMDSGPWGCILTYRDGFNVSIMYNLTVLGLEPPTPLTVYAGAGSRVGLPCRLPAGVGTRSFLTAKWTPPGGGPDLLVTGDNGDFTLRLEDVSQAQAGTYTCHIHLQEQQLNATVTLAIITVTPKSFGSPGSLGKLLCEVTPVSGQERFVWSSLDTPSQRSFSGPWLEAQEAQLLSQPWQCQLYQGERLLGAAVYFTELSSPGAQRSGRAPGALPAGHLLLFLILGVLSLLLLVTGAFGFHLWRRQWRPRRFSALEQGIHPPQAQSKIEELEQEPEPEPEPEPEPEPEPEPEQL

[11] = molecular target: T1, human LAG-3 on cells (HEK293-hLAG-3 …); assay: FACS, HEK293-hLAG-3, antibody 0.064 nM
[12] = molecular target: T1, human LAG-3 on cells (HEK293-hLAG-3 …); assay: FACS, HEK293-hLAG-3, antibody 0 nM
[13] = molecular target: T1, human LAG-3 on cells (HEK293-hLAG-3 …); assay: FACS, HEK293-hLAG-3, antibody 0.32 nM
Source text: A. The binding of antibodies to LAG-3 expressing cells was detected by Flow cytometry (FACS), wherein the method was according to that of Example 5.

[14] = molecular target: T2, PHPAAPSSWGPRK-Biotin (human); assay: peptide scanning ELISA, biotin peptide on streptavidin
T2 construct: Overlapping peptide of the outer loop of human LAG-3; also called LAG-3 Extra cyclic peptide
T2 peptide: PHPAAPSSWGPRK-{Biotin′}
Procedure: (§1) Fifteen overlapping peptides including the full length of the outer loop sequence were prepared and biotin was coupled to each C-terminus. Enzyme-linked immunosorbent assay (ELISA) was used to detect the binding of antibodies to these peptides. Streptavidin (sigma, Cat #M5432) was diluted with PBS to a final concentration of 1.0 μg/ml, and then added as 100 μl per well to a 96-well ELISA plate. The plate was sealed with plastic film and incubated overnight at 4° C. The plate was washed 2 times with the plate washing solution (PBS+0.01% Tween20) on the next day, and added with the blocking solution (PBS+0.01% Tween20+1% BSA) and blocked at room temperature for 1-2 hours. The blocking solution was poured off, and biotinylated peptides was added to a final concentration of 1 ug/ml, as 100 ul per well to the 96-well ELISA plate, incubated at 37° C. for 1-2 hours, then washed with plate washing solution (PBS+0.01% Tween20)2-3 times. Then the antibody samples to be tested were incubated as 100 μl per well at 37° C. for 1-2 hours, and then the plate was washed 2-3 times with a plate washing solution (PBS+0.01% Tween20). HRP (horseradish peroxidase) labeled secondary antibody was added, and the plate was incubated at 37° C. for 1-2 hours, and washed 2-3 times with a plate washing solution (PBS+0.01% Tween20). 100 μl of TMB substrate was added to each well. After incubated at room temperature for 15-30 minutes, the plate was added with 100 μl of stop solution (1.0N HCl) to each well.

[15] = molecular target: T3, HPAAPSSWGPRPK-Biotin (human); assay: as above
T3 construct: Overlapping peptide of the outer loop of human LAG-3; also called LAG-3 Extra cyclic peptide
T3 peptide: HPAAPSSWGPRPK-{Biotin′}
Procedure: as §1

Molecule: hIgG control (antibody)
- IL-2 production, SEB-dependent PBMC stimulation test, 0.0032 ug/ml, N = 1 [1]: 1620 pg/mL
- IL-2 production, SEB-dependent PBMC stimulation test, 0.0032 ug/ml, N = 2 [1]: 1590 pg/mL
- IL-2 production, SEB-dependent PBMC stimulation test, 0.016 ug/ml, N = 1 [1]: 1220 pg/mL
- IL-2 production, SEB-dependent PBMC stimulation test, 0.016 ug/ml, N = 2 [1]: 1660 pg/mL
- IL-2 production, SEB-dependent PBMC stimulation test, 0.08 ug/ml, N = 1 [1]: 1020 pg/mL
- IL-2 production, SEB-dependent PBMC stimulation test, 0.08 ug/ml, N = 2 [1]: 1650 pg/mL
- IL-2 production, SEB-dependent PBMC stimulation test, 0.4 ug/ml, N = 1 [1]: 1060 pg/mL
- IL-2 production, SEB-dependent PBMC stimulation test, 0.4 ug/ml, N = 2 [1]: 1680 pg/mL
- IL-2 production, SEB-dependent PBMC stimulation test, 2 ug/ml, N = 1 [1]: 1130 pg/mL
- IL-2 production, SEB-dependent PBMC stimulation test, 2 ug/ml, N = 2 [1]: 1630 pg/mL
- IL-2 production, SEB-dependent PBMC stimulation test, 10 ug/ml, N = 1 [1]: 1280 pg/mL
- IL-2 production, SEB-dependent PBMC stimulation test, 10 ug/ml, N = 2 [1]: 1490 pg/mL
- IL-2 production, antigen-specific T lymphocyte stimulation test, 0.016 ug/ml, N = 1 [1]: 336 pg/mL
- IL-2 production, antigen-specific T lymphocyte stimulation test, 0.016 ug/ml, N = 2 [1]: 298 pg/mL
- IL-2 production, antigen-specific T lymphocyte stimulation test, 0.08 ug/ml, N = 1 [1]: 286 pg/mL
- IL-2 production, antigen-specific T lymphocyte stimulation test, 0.08 ug/ml, N = 2 [1]: 282 pg/mL
- IL-2 production, antigen-specific T lymphocyte stimulation test, 0.4 ug/ml, N = 1 [1]: 322 pg/mL
- IL-2 production, antigen-specific T lymphocyte stimulation test, 0.4 ug/ml, N = 2 [1]: 286 pg/mL
- IL-2 production, antigen-specific T lymphocyte stimulation test, 2 ug/ml, N = 1 [1]: 382 pg/mL
- IL-2 production, antigen-specific T lymphocyte stimulation test, 2 ug/ml, N = 2 [1]: 317 pg/mL
- IL-2 production, antigen-specific T lymphocyte stimulation test, 10 ug/ml, N = 1 [1]: 338 pg/mL
- IL-2 production, antigen-specific T lymphocyte stimulation test, 10 ug/ml, N = 2 [1]: 277 pg/mL
- Mean fluorescence intensity [2]: 4
- Mean fluorescence intensity [3]: 4
- Mean fluorescence intensity [4]: 4
- Mean fluorescence intensity [5]: 3.1
- Mean fluorescence intensity [6]: 2.7
- Mean fluorescence intensity [7]: 3.25
- Inhibition rate (%) [8]: -7.9%
- Inhibition rate (%) [9]: -10.1%

B1: 556F6B8 mouse-human chimeric antibody (antibody, V domains shown)
VH: RVQLKQSGPGLVQPSQSLSITCTVSGFSLIKYGVHWVRQSPGEGLEWLGVIWRGGITDYNAAFMSRLSITKDNSKSQVFFKMNSLQADDTAIYYCAKWDGPLAMDYWGQGTSVTVSS
VL: DIVMTQSHKFLSTSVGDRVSITCKASQDVGTTVAWYQQKPGQSPKLLIYWASTRHTGVPDRFTGSGSGTDFTLTISNVQSEDLADYFCQQYSSYPYTFGGGTKLEIK
notes: also called mAb123-556F6B8; 556F8B8
- Mean fluorescence intensity [10]: 96
- Mean fluorescence intensity [11]: 12

B2: 405B8H3 mouse-human chimeric antibody (antibody, V domains shown)
VH: QVQLQQSGAELVRPGASVTLSCKASGYTFTDYEMHWVKQTPVHGLEWIGATDPETGNSAYNQKFKGKAIMTADKSSSTAYMELRSLTSEDSAVYYCISTGWNDWGQGTSLTVSS
VL: DIKMTQSPSSMYASLGERVTITCKASQDINSYLSWFQQKPGKSPKTLIYRADRLLDGVPSRFSGSGSGQDYSLTISSLEYGDMGIYYCLQYDEFPYTFGGGTKLEIK
notes: also called mAb103-405B8H3
- Mean fluorescence intensity [12]: 4
- Mean fluorescence intensity [13]: 54

B3: 105F1E10 (mouse antibody purified from hybridoma) (antibody, V domains shown)
VH: EVQLQQSGPELVKPGASVKMSCRASGYTFTDFKMHWMKQSHGKSLEWIGYIAPNNGGTAYNQKFRGKATLTVNESSNTAYMELRSLTSEDSAVYYCVDWDDVDYWGQGTTLTVSS
VL: DIKMTQSPSSMYASLGERVTITCKASQDINSYLSWFQQKSGKSPKTLIYRANRLVDGVPSRFSGSGSGQDYSLTISSLEYEDMGIYYCLQYVEFPLTFGAGTKLELK
notes: also called mAb009-105F1E10
- binding result [14]: binds
- binding result [15]: binds
